How the values were obtained:
[1] = molecular target: CD3εδ-ECD-his (CD3εδ异二聚体蛋白) (UniProt P07766); experiment: ELISA, CD3εδ-ECD-his coated at 1 ug/mL, anti-human IgG Fab HRP (Table 15)
[2] = molecular target: CD3εδ-ECD-his (CD3εδ异二聚体蛋白) (UniProt P07766); experiment: ELISA, CD3εδ-ECD-his coated at 1 ug/mL (Table 20)

B1: SP34 (humanized anti-CD3 monoclonal antibody) (antibody, human IgG1, kappa, V domains shown)
VH: EVQLVESGGGLVQPGGSLRLSCAASGFTFNTYAMNWVRQAPGKGLEWVARIRSKYNNYATYYADSVKDRFTISRDDSKNTLYLQMNSLRAEDTAVYYCVRHGNFGNSYVSWFAYWGQGTLVTVSS
VL: QAVVTQEPSLTVSPGGTVTLTCRSSTGAVTTSNYANWVQQKPGQAPRGLIGGTNKRAPGVPARFSGSLLGGKAALTLSGAQPEDEAEYYCALWYSNLWVFGQGTKVEIKR
Which EC50 [1] does the source give for B1 here?
Its EC50 is 0.13 nM.

And the EC50 [2]?
Its EC50 is 0.118 nM.
